Laboratory results as given in publication PMC8630017, “Structural insights into proteolytic activation of the human Dispatched1 transporter for Hedgehog morphogen release” (Nature Communications, 2021).

B1: hDisp1^NNN (D572N, D573N, D1051N), N-terminal Flag tag and C-terminal His10 tag, purified (natural protein, human, UniProt Q96F81 1-1524, looked up)
chain: MAMSNGNNDFVVLSNSSIATSAANPSPLTPCDGDHAAQQLTPKEATRTKVSPNGCLQLNGTVKSSFLPLDNQRMPQMLPQCCHPCPYHHPLTSHSSHQECHPEAGPAAPSALASCCMQPHSEYSASLCPNHSPVYQTTCCLQPSPSFCLHHPWPDHFQHQPVQQHIANIRPSRPFKLPKSYAALIADWPVVVLGMCTMFIVVCALVGVLVPELPDFSDPLLGFEPRGTAIGQRLVTWNNMVKNTGYKATLANYPFKYADEQAKSHRDDRWSDDHYEREKREVDWNFHKDSFFCDVPSDRYSRVVFTSSGGETLWNLPAIKSMCNVDNSRIRSHPQFGDLCQRTTAASCCPSWTLGNYIAILNNRSSCQKIVERDVSHTLKLLRTCAKHYQNGTLGPDCWDMAARRKDQLKCTNVPRKCTKYNAVYQILHYLVDKDFMTPKTADYATPALKYSMLFSPTEKGESMMNIYLDNFENWNSSDGVTTITGIEFGIKHSLFQDYLLMDTVYPAIAIVIVLLVMCVYTKSMFITLMTMFAIISSLIVSYFLYRVVFHFEFFPFMNLTALIILVGIGANNAFVLCDVWNYTKFDKPHAETSETVSITLQHAALSMFVTSFTTAAAFYANYVSNITAIRCFGVYAGTAILVNYVLMVTWLPAVVVLHERYLLNIFTCFKKPQQQIYDNKSCWTVACQKCHKVLFAISEASRIFFEKVLPCIVIKFRYLWLFWFLALTVGGAYIVCINPKMKLPSLELSEFQVFRSSHPFERYDAEYKKLFMFERVHHGEELHMPITVIWGVSPEDNGNPLNPKSKGKLTLDSSFNIASPASQAWILHFCQKLRNQTFFYQTDEQDFTSCFIETFKQWMENQDCDEPALYPCCSHWSFPYKQEIFELCIKRAIMELERSTGYHLDSKTPGPRFDINDTIRAVVLEFQSTYLFTLAYEKMHQFYKEVDSWISSELSSAPEGLSNGWFVSNLEFYDLQDSLSDGTLIAMGLSVAVAFSVMLLTTWNIIISLYAIISIAGTIFVTVGSLVLLGWELNVLESVTISVAVGLSVNFAVHYGVAYRLAPDPDREGKVIFSLSRVGSAMAMAALTTFVAGAMMMPSTVLAYTQLGTFMMLIMCISWAFATFFFQCMCRCLGPQGTCGQIPLPKKLQCSAFSHALSTSPSDKGQSKTHTINAYHLDPRGPKSELEHEFYELEPLASHSCTAPEKTTYEETHICSEFFNSQAKNLGMPVHAAYNSELSKSTESDAGSALLQPPLEQHTVCHFFSLNQRCSCPDAYKHLNYGPHSCQQMGDCLCHQCSPTTSSFVQIQNGVAPLKATHQAVEGFVHPITHIHHCPCLQGRVKPAGMQNSLPRNFFLHPVQHIQAQEKIGKTNVHSLQRSIEEHLPKMAEPSSFVCRSTGSLLKTCCDPENKQRELCKNRDVSNLESSGGTENKAGGKVELSLSQTDASVNSEHFNQNEPKVLFNHLMGEAGCRSCPNNSQSCGRIVRVKCNSVDCQMPNMEANVPAVLTHSELSGESLLIKTL
notes: human Dispatched1, M1 to L1524, triple mutant in TM4 and TM10; The purified protein is a mix of uncleaved (175 kDa) and Furin-cleaved species (C145 with the His tag; N35 and N30 with the Flag tag); source: HEK293F, transiently transfected, purified (anti-Flag resin, Ni-NTA, SEC on Superose 6) in GDN; not shown: Flag, N-terminal, kept; His10, C-terminal, kept

target: wild-type human Dispatched1 (hDisp1), N-terminal Flag tag and C-terminal Twin-Strep tag (human) (UniProt Q96F81); experiment: not given

Q: For “NanoLuc-tagged human Shh, mutant E71A (from UniProt Q15465 24-462) (ligand)”, which Scube2-dependent Shh-NL release from HEK293T cells after 6 h, against WT Shh-NL (fold reduction) is on record?
A: > 2

Q: For “NanoLuc-tagged human Shh, mutant K74A (from UniProt Q15465 24-462) (ligand)”, which Scube2-dependent Shh-NL release from HEK293T cells after 6 h, against WT Shh-NL (fold reduction) is on record?
A: > 2

Q: With “NanoLuc-tagged human Shh, mutant L56A (from UniProt Q15465 24-462) (ligand)” as the molecule, how does the Scube2-dependent Shh-NL release from HEK293T cells after 6 h, against WT Shh-NL (fold reduction) read?
A: > 2

Q: How did the Scube2-dependent Shh-NL release from HEK293T cells after 6 h, against WT Shh-NL (fold reduction) turn out when “NanoLuc-tagged human Shh, mutant L56K (from UniProt Q15465 24-462) (ligand)” was run?
A: > 2

Q: For “NanoLuc-tagged human Shh, mutant N50A (from UniProt Q15465 24-462) (ligand)”, which Scube2-dependent Shh-NL release from HEK293T cells after 6 h, against WT Shh-NL (fold reduction) is on record?
A: > 2

Q: Which Scube2-dependent Shh-NL release from HEK293T cells after 6 h, against WT Shh-NL (surface localisation of this mutant reduced just below 50%) (fold reduction) does the source give for “NanoLuc-tagged human Shh, mutant N81A (from UniProt Q15465 24-462) (ligand)” here?
A: > 2

Q: For “NanoLuc-tagged human Shh, mutant V51E (from UniProt Q15465 24-462) (ligand)”, which Scube2-dependent Shh-NL release from HEK293T cells after 6 h, against WT Shh-NL (fold reduction) is on record?
A: > 2

Q: How did the Scube2-dependent Shh-NL release from HEK293T cells after 6 h, against WT Shh-NL (fold reduction) turn out when “NanoLuc-tagged human Shh, mutant Y80A (from UniProt Q15465 24-462) (ligand)” was run?
A: > 2

Target: the molecule itself
Experiment: SEC; purified hDisp1^NNN on Superose 6 10/300 GL in 25 mM Tris pH 8.0, 150 mM NaCl, 0.02% GDN

Q: Does B1 bind?
A: binds
